In the Immune Epitope Database (IEDB) one finds Kd data, which are given here for seven sequences.

For one test, the target named is HLA-C*03:03. Kind of test: IEDB peptide-MHC binding, purified MHC/direct/fluorescence; filed as Kd, often an IC50 or EC50 that approximates it; ≥ and ≤ were set here for values at or beyond the usual limits of such assays.
The target in a further test is HLA-B*07:02. The description is as above. Conditions: source organism: Orthohantavirus hantanense.
Test [1] deals with HLA-B*51:01. The test is described as above.
A further test concerns the target HLA-B*15:42. The experiment in a line: IEDB peptide-MHC binding, purified MHC/competitive/fluorescence; filed as Kd, often an IC50 or EC50 that approximates it; ≥ and ≤ were set here for values at or beyond the usual limits of such assays.
The target of the next test is HLA-C*04:01. The description is as above.
The target in a further test is HLA-B*45:06. The description is as above.
For a further test, the target named is HLA-B*39:01. The experiment in a line: IEDB peptide-MHC binding, purified MHC/direct/fluorescence; filed as Kd, often an IC50 or EC50 that approximates it; ≥ and ≤ were set here for values at or beyond the usual limits of such assays. To be noted: source organism: Mycobacterium tuberculosis str. Haarlem.
Test [2] concerns the target HLA-A*02:01. The test is described as above.
A further test addresses HLA-A*02:12. Described as above.
The target in the next test is HLA-A*29:02. The test is described as above.
The next test concerns the target HLA-A*02:03. The description is as above.
The next test concerns the target HLA-A*02:11. The description is as above.
In another test the target is HLA-B*46:01. The description is as above.
Another test deals with HLA-B*18:01. The test is described as above.
The target of another test is HLA-B*27:03. The description is as above.
Test [3] addresses HLA-B*15:01. Described as above.
Another test addresses HLA-A*02:16. Described as above.
The target in the next test is HLA-A*24:03. The description is as above.
The target of another test is HLA-A*26:01. The description is as above.
The next test addresses HLA-A*02:19. The test is described as above.
The target of test [4] is HLA-A*03:01. The description is as above.
For test [5], the target named is HLA-B*15:01. Kind of test: IEDB peptide-MHC binding, purified MHC/competitive/fluorescence; filed as Kd, often an IC50 or EC50 that approximates it; ≥ and ≤ were set here for values at or beyond the usual limits of such assays. To be noted: source organism: Salmonella enterica subsp. enterica serovar Typhi.
In another test the target is HLA-B*83:01. Described as above. Conditions: source organism: Salmonella enterica subsp. enterica serovar Typhi.
The target in test [6] is HLA-A*03:01. The test is described as above. Conditions: source organism: Salmonella enterica subsp. enterica serovar Typhi.
In another test the target is HLA-A*68:23. The test is described as above. To be noted: source organism: Salmonella enterica subsp. enterica serovar Typhi.
For the next test, the target named is HLA-A*31:01. Described as above. To be noted: source organism: Salmonella enterica subsp. enterica serovar Typhi.
Another test has as its target HLA-C*08:02. The experiment in a line: IEDB peptide-MHC binding, purified MHC/direct/fluorescence; filed as Kd, often an IC50 or EC50 that approximates it; ≥ and ≤ were set here for values at or beyond the usual limits of such assays. Conditions: source organism: Yersinia pestis Nepal516.
Test [7] has as its target HLA-A*02:01. Kind of test: IEDB peptide-MHC binding, purified MHC/competitive/fluorescence; filed as Kd, often an IC50 or EC50 that approximates it; ≥ and ≤ were set here for values at or beyond the usual limits of such assays. To be noted: source organism: Yersinia pestis Nepal516.
A further test concerns the target HLA-A*01:01. The test is described as above. Conditions: source organism: Yersinia pestis Nepal516.
Test [8] deals with HLA-B*51:01. The description is as above. To be noted: source organism: Yersinia pestis Nepal516.
The target of another test is HLA-B*58:01. The test is described as above. Conditions: source organism: Yersinia pestis Nepal516.
Another test deals with HLA-A*23:01. The experiment in a line: IEDB peptide-MHC binding, purified MHC/direct/fluorescence; filed as Kd, often an IC50 or EC50 that approximates it; ≥ and ≤ were set here for values at or beyond the usual limits of such assays. Conditions: source organism: Salmonella enterica subsp. enterica serovar Typhimurium str. LT2.
In the next test the target is HLA-A*68:02. The description is as above. To be noted: source organism: Salmonella enterica subsp. enterica serovar Typhimurium str. LT2.
In a further test the target is HLA-A*69:01. The test is described as above. Conditions: source organism: Salmonella enterica subsp. enterica serovar Typhimurium str. LT2.
The target in the next test is HLA-B*57:01. Described as above. Conditions: source organism: Salmonella enterica subsp. enterica serovar Typhimurium str. LT2.
For a further test, the target named is HLA-B*15:17. The description is as above. Conditions: source organism: Salmonella enterica subsp. enterica serovar Typhimurium str. LT2.
The mark [9] stands for this setting: source organism: Hantaan virus 76-118.
The mark [10] stands for this setting: source organism: Mycobacterium tuberculosis str. Haarlem.
[11] abbreviates: source organism: Salmonella enterica subsp. enterica serovar Typhi.
Where [12] appears, read: source organism: Salmonella enterica subsp. enterica serovar Typhimurium str. LT2.

What is called Kd is the concentration at which binding is half-saturated. Read a low Kd as a tighter complex. LAYARGQAM: in the test with HLA-C*03:03 (source organism: Human herpesvirus 4 strain B95-8), the Kd is no more than 1 nM.
Consider TPGRYRTAV, for which the Kd was no more than 1 nM with HLA-B*07:02; no less than 20 µM with HLA-B*51:01 [1] (source organism: Orthohantavirus hantanense); no less than 5 µM with HLA-B*15:42 (setting [9]); no less than 5 µM with HLA-C*04:01 (setting [9]); no less than 5 µM with HLA-B*45:06 (setting [9]).
YISPIFIPM displayed a Kd in the test with HLA-C*03:03 (source organism: Rickettsia sibirica 246) of no more than 1 nM.
In the case of MAVTAAPYI, the Kd with HLA-B*39:01, in the test with HLA-A*02:01 [2] (setting [10]), in the test with HLA-A*02:12 (setting [10]), with HLA-A*29:02 (setting [10]), in the test with HLA-A*02:03 (setting [10]) and in the test with HLA-A*02:11 (setting [10]) was no less than 20 µM in each case. Also, the Kd with HLA-B*46:01 (setting [10]), in the test with HLA-B*18:01 (setting [10]), with HLA-B*27:03 (setting [10]), with HLA-B*15:01 [3] (setting [10]), with HLA-A*02:16 (setting [10]) and with HLA-A*24:03 (setting [10]) was no less than 20 µM throughout. In addition, the Kd with HLA-A*26:01 (setting [10]) is no less than 20 µM; with HLA-A*02:19 (setting [10]), no less than 20 µM; with HLA-A*03:01 [4] (setting [10]), no less than 20 µM; with HLA-B*51:01 [1] (setting [10]) it was 0.103 µM.
Regarding STFDLYVYR, the Kd is no less than 20 µM with HLA-B*15:01 [5]; no less than 5 µM with HLA-B*83:01; no less than 5 µM in the test with HLA-B*15:42 (setting [11]); no less than 5 µM with HLA-C*04:01 (setting [11]); 3.21 µM with HLA-A*03:01 [6]; 13.9 nM with HLA-A*68:23. Also, the values for the Kd with HLA-A*31:01 and with HLA-B*45:06 (setting [11]) were 24.3 nM and no less than 5 µM, respectively.
For MTSELAALI, the Kd in the test with HLA-C*08:02 is 415 nM; with HLA-A*02:01 [7], 7.3 nM; with HLA-A*01:01, no less than 20 µM; in the test with HLA-B*51:01 [8], no less than 20 µM; with HLA-B*58:01, 22.5 nM.
Consider FKYDSTKPL, for which the dissociation constant Kd with HLA-A*02:01 [2] (setting [12]), with HLA-A*23:01, with HLA-A*02:12 (setting [12]), with HLA-A*68:02, with HLA-A*69:01 and in the test with HLA-A*29:02 (setting [12]) was no less than 20 µM throughout. The dissociation constant (Kd) with HLA-A*02:03 (setting [12]), with HLA-A*02:11 (setting [12]), in the test with HLA-B*46:01 (setting [12]), in the test with HLA-B*18:01 (setting [12]), with HLA-B*27:03 (setting [12]) and in the test with HLA-B*15:01 [3] (setting [12]) was no less than 20 µM in each case. In addition, the Kd in the test with HLA-A*02:16 (setting [12]), with HLA-A*24:03 (setting [12]), with HLA-A*26:01 (setting [12]), with HLA-A*02:19 (setting [12]), with HLA-A*03:01 [4] (setting [12]) and with HLA-B*51:01 [1] (setting [12]) was no less than 20 µM each time. Also, the Kd in the test with HLA-B*57:01 and with HLA-B*15:17 was no less than 20 µM in each case.
